The stoichiometry N is the number of molecules, sites or subunits per partner or assembly.

The assay concerns the target Leishmania RNA virus 1 isolate LRV1-4 major capsid protein (Leishmania RNA virus 1 (isolate LRV1-4, from Leishmania guyanensis strain M5313)). Nature of the assay: cryo-EM structure; single-particle reconstruction of purified LRV1 virus-like particles, 0.16 mg/ml, in 20 mM sodium phosphate pH 7.4, 300 mM NaCl, 5 mM beta-mercaptoethanol; icosahedral symmetry; 3.65 Å.

Regarding “Leishmania RNA virus 1 isolate LRV1-4 major capsid protein (natural protein)”, the stoichiometry N came to 120 copies.

Values taken from article PMC7925086.
